Experimental data reported in publication PMC11294680.

Target: human BKCa channel α-subunit (hSlo1), residues 1-1,114 (human)
Experiment: cryo-EM structure; purified tetrameric channel (5.5 mg/ml, 44 μM) in 20 mM Tris-HCl pH 8.0, 450 mM KCl, 10 mM CaCl2, 10 mM MgCl2, 0.01% glyco-diosgenin, POPE/POPC/POPA, mixed with 1 mM CTIBD on ice for 30 min; C1 and C4 symmetry

In the case of “human BKCa channel α-subunit (hSlo1), residues 1-1,114 (natural protein)”, the stoichiometry N is reported as 4.
